From patent US20250090663A1 come the findings set out here.

Assay [1] deals with Cyno GPC3.hFc. Briefly: SPR (Carterra).
Assay [2] deals with Human GPC3.hFc. Briefly: SPR (Carterra).

For the substance HGC33 scFv, the Kd (in general, the concentration at which binding is half-saturated) in assay [1] worked out at 2.46 nM; in assay [2], 2.63 nM.
